Assay results published in US20130243767A1.
Ends that are not written are not given here.

Target: CD32 (FcγRII) on human plasmacytoid dendritic cells (human) (UniProt P12318)
Assay: cell-based or functional assay

Sequence of CD32 (FcγRII) on human plasmacytoid dendritic cells (human) (P12318 34-317): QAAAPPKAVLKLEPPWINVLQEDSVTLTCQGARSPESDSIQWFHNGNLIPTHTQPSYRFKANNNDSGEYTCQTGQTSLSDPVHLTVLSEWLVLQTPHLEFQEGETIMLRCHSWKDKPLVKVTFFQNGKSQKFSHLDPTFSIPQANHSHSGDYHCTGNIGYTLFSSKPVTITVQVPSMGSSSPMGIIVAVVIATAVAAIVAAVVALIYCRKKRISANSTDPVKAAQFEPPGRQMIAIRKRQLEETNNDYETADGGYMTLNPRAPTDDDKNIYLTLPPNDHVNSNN

IL-6 production of pDCS in PBMC after stimulation with CPG-C: 75 times
TNFα induction in PBMC after stimulation with CPG-C: 3 times
Binder: ADGAWAWVWLTETAVGAAK-biotin [aCD32a peptide published by Berntzen et al, …-biotin]
